Experimental findings from article PMC11260466, “Binding of the TRF2 iDDR motif to RAD50 highlights a convergent evolutionary strategy to inactivate MRN at telomeres” are described below.

The target in the series is HsRAD50-head (Homo sapiens, UniProt Q92878;Q92878 1-200;1113-1312). The series is described as follows: EMSA; Mg-ATP; EMSA: 20 mM Bis-Tris propane pH 8.0, 200 mM NaCl, 0.5 mM TCEP, Mg-ATP added to RAD50, 500 nM DNA duplex; 5% polyacrylamide, 0.5x TBE, 4 C gel run (binding temperature not stated). The following applies: protein: recombinant; tags: C-terminal 3C site + 2xStrep-II on the 1-200 fragment; chain copies: 2;2; label: 5'-carboxyfluorescein (F) on strand 1; blunt ends; as printed S2 is 47 nt and lacks the G opposite C21 of S1 (1-nt bulge, possibly a misprint).
Sequence of HsRAD50-head (Q92878 1-200, chain 1 of 2): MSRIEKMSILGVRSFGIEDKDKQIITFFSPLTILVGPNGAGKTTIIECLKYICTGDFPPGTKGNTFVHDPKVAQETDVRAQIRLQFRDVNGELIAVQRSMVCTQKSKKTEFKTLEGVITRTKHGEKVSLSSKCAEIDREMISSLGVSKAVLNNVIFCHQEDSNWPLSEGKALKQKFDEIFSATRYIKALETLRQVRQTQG
Sequence of HsRAD50-head (Q92878 1113-1312, chain 2 of 2): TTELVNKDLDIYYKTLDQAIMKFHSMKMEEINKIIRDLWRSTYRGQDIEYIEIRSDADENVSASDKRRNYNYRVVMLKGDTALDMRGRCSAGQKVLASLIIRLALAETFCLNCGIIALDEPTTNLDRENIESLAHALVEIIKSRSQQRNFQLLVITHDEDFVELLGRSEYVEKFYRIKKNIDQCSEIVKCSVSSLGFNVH

B1: 48-mer DNA duplex (dsDNA)
DNA 1: TAGTGCTGTAGGAGAATATACGGGCTGCTCGTGTTGACAAGTACTGAT
DNA 2: ATCAGTACTTGTCAACACGAGCAGCCCTATATTCTCCTACAGCACTA
Consider B1, for which the binding result is listed as “binds”.
